# Measurements as given in paper doi:10.1101/2022.05.28.493848.
# Target: Porcine skeletal muscle α-actin, filamentous (porcine) (UniProt P68137)
substance,measurement,value
"MyoB-MLC-B CaMLD complex, purified (from UniProt Q8I465 1-801; Q8III1 1-652)",coupling efficiency (kcat/Kapp) of the actin-activated ATPase,9
